Laboratory results taken from patent publication US20020141999A1.

How the values were obtained:
[1] = target: human CD7, full length, on cells (human) (UniProt P09564); assay: flow cytometry, control Fc on Jurkat cells (express CD7), non-blocked
[2] = target: human CD7, full length, on cells (human) (UniProt P09564); assay: flow cytometry, control IgG on Jurkat cells (express CD7), non-blocked
[3] = target: human CD7, full length, on cells (human) (UniProt P09564); assay: flow cytometry, control IgG staining of Jurkat cells (express CD7), non-blocked
[4] = target: human CD7, full length, on cells (human) (UniProt P09564); assay: flow cytometry, antibody staining of Jurkat cells (express CD7), non-blocked
[5] = target: human CD7, full length, on cells (human) (UniProt P09564); assay: flow cytometry, antibody staining of Jurkat cells preincubated with HuK12-Fc (competitor)

Chain of human CD7, full length, on cells (human) (P09564 26-240 limits assumed): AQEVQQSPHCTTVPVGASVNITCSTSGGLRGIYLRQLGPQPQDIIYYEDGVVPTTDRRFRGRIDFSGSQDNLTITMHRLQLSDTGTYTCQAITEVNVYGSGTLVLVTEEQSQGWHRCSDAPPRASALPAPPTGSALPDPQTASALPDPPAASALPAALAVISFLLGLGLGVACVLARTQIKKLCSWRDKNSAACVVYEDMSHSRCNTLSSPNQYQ

% Positive Cells [1] [%] | MFI [1] | % Positive Cells [2] [%] | MFI [2] | % Positive Cells [3] [%] | MFI [3] | % Positive Cells [4] [%] | MFI [4] | % Positive Cells [5] [%] | MFI [5] | Substance
3.4 | 18 |  |  |  |  |  |  |  |  | Control Fc (Fc fusion)
 |  | 3.6 | 17 | 3 | 18 |  |  |  |  | IgG Control (antibody)
 |  |  |  |  |  | 88 | 38 | 4 | 19 | anti-human CD7 monoclonal antibody Clone 4H9 (Pharmingen)
 |  |  |  |  |  | 78 | 27 | 8 | 24 | anti-human CD7 monoclonal antibody Clone 8118.1 (Immunotech)
 |  |  |  |  |  | 80 | 30 | 63 | 24 | anti-human CD7 monoclonal antibody Clone CLB-3A1 (Research Diagnostics, Inc.)
 |  |  |  |  |  | 78 | 27 | 12 | 19 | anti-human CD7 monoclonal antibody Clone M-T701 (Becton Dickinson)
 |  |  |  |  |  | 71 | 23 | 9 | 18 | anti-human CD7 monoclonal antibody Clone RFT-2a (Research Diagnostics, Inc.)
 |  |  |  |  |  | 62 | 22 | 11 | 18 | anti-human CD7 monoclonal antibody Clone WM31 (Research Diagnostics, Inc.)
